What was measured:
[1] = molecular target: human ENPP3 on cells (human) (UniProt O14638); test: flow cytometry receptor quantification on KMRC20 cells
[2] = molecular target: human ENPP3 on cells (human) (UniProt O14638); test: flow cytometry receptor quantification on Hep3B cells
[3] = molecular target: human ENPP3 on cells (human) (UniProt O14638); test: flow cytometry receptor quantification on ACHN cells
[4] = molecular target: human ENPP3 on cells (human) (UniProt O14638); test: flow cytometry receptor quantification on 786-O cells
[5] = molecular target: human ENPP3 on cells (human) (UniProt O14638); test: flow cytometry receptor quantification on HUH-7 cells
[6] = molecular target: human ENPP3 on cells (human) (UniProt O14638); test: flow cytometry receptor quantification on CHO-K1 ENPP3-OE cells; bar above the ULOD line
[7] = molecular target: human ENPP3 on cells (human) (UniProt O14638); test: flow cytometry receptor quantification on TUHR4TKB cells (Table 18 of the text prints this value under a second TUHR10TKB row)

Chain of human ENPP3 on cells (human) (O14638 whole entry): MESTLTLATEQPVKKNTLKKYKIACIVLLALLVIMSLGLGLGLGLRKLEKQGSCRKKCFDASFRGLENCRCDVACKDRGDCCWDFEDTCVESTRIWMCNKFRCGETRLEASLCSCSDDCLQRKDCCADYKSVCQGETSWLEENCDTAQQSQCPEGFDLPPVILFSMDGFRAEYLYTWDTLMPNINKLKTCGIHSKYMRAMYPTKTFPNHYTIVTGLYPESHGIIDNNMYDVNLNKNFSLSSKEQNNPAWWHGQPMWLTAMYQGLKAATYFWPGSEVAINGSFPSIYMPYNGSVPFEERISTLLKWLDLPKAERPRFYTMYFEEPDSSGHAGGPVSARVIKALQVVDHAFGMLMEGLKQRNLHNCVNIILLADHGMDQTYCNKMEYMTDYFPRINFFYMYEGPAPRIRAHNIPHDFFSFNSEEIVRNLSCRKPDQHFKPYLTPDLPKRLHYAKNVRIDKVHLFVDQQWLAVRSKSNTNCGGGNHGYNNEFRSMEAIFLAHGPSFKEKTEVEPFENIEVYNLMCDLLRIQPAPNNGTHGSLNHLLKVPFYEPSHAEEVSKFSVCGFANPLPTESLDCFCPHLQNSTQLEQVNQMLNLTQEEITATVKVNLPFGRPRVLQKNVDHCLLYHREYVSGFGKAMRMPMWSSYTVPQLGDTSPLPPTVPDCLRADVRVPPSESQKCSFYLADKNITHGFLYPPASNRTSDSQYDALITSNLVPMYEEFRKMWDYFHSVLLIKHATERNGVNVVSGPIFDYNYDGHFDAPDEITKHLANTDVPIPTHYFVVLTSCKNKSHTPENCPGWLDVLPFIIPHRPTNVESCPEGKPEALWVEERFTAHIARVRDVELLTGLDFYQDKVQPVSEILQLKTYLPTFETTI

- ENPP3 Receptor Density - Antibody Binding capacity (ABC) [1]: 21000 ABC
- ENPP3 Receptor Density - Antibody Binding capacity (ABC) [2]: 13000 ABC
- ENPP3 Receptor Density - Antibody Binding capacity (ABC) [3]: 5000 ABC
- ENPP3 Receptor Density - Antibody Binding capacity (ABC) [4]: 4000 ABC
- ENPP3 Receptor Density - Antibody Binding capacity (ABC) [5]: 7000 ABC
- ENPP3 Receptor Density - Antibody Binding capacity (ABC) [6]: > 470000 ABC
- ENPP3 Receptor Density - Antibody Binding capacity (ABC) [7]: 61000 ABC
Substance: commercial ENPP3 antibody clone NP4D6

Source: patent US20250163182A1
